Test results published in the supplement of paper PMC10126150.
± gives the standard deviation of the averaged measurements.

Tested on: ATP
Test: switch fluorescence ratio, 500 uM ATP over buffer (Cy3 cluster intensity, sum of 5 cycles each) (fold (ratio)); higher = stronger signal-on switching upon ATP binding; sequences stand for … in TCGTCGGCAGCGTCAGATGTGTATAAGAGACAGTTTTTTTTTTTTTTTTTTTTTTTTT…TC
Details: aptamer strand: ATP DNA aptamer (quencher-CACCTGGGGGAGTATTGCGGAGGAAGG + anchor), 100 nM annealed; ATP concentration: 500 uM
In short: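 The fluorescence ratio divides summed target-cycle Cy3 intensity by summed buffer-cycle Cy3 intensity for each cluster and is averaged per switch-domain sequence. Cy3-labelled switching-strand clusters on a modified Illumina MiSeq flow-cell were annealed to 100 nM quencher-labelled ATP aptamer, then imaged in selection buffer and again after 15 min with 500 uM ATP at 22 °C. Five such cycles were run, with NaOH stripping and re-annealing between them, and clusters outside 100-1000 RFU were excluded.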
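Note: ATP exposure 15 min at 22 °C before imaging.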

Row | Sequence | switch fluorescence ratio
1 | AAAAAAAAAA | 1 ± 0.022
2 | AAAAAAAAAT | 1.04 ± 0.03
3 | AAAAAAAATT | 0.993 ± 0.044
4 | AAAAAACGGT | 1.02 ± 0.025
5 | AAAAAAGGGG | 1.87 ± 1.5
6 | AAAAAAGGTG | 1.16 ± 0.22
7 | AAAAAATGTG | 0.99 ± 0.031
8 | AAAAAATTGG | 0.989 ± 0.035
9 | AAAAACATGG | 1.012 ± 0.0096
10 | AAAAAGAAAT | 1.04 ± 0.021
11 | AAAAAGCAGG | 1.13 ± 0.14
12 | AAAAAGGAAT | 0.982 ± 0.011
13 | AAAAAGGGAG | 1.01 ± 0.044
14 | AAAAAGGGCA | 0.995 ± 0.061
15 | AAAAAGGGT | 0.987 ± 0.032
16 | AAAAAGGGTT | 1 ± 0.025
17 | AAAAAGTGAG | 0.973 ± 0.042
18 | AAAAATCCTG | 0.98 ± 0.021
19 | AAAAATCGT | 1.01 ± 0.014
20 | AAAAATGCCG | 0.99 ± 0.019
21 | AAAAATGCGC | 1.03 ± 0.017
22 | AAAAATGGGC | 1.035 ± 0.005
23 | AAAAATGTTC | 0.9814 ± 4.7e-05
24 | AAAAATTGTG | 1.01 ± 0.046
25 | AAAAATTGTT | 0.986 ± 0.027

Row | Sequence | switch fluorescence ratio
26 | AAAACAGTTC | 1.04 ± 0.048
27 | AAAACAGTTT | 0.987 ± 0.036
28 | AAAACCCGA | 1.01 ± 0.051
29 | AAAACCGTCG | 1.1 ± 0.023
30 | AAAACCTTGG | 1.05 ± 0.021
31 | AAAACGCATG | 1.05 ± 0.021
32 | AAAACGGCGT | 0.959 ± 0.01
33 | AAAACGGGAA | 1.02 ± 0.018
34 | AAAACGTAAC | 1.25 ± 0.1
35 | AAAACGTTTA | 1.01 ± 0.043
36 | AAAACTAACG | 1.1 ± 0.037
37 | AAAACTATTT | 0.9865 ± 0.0064
38 | AAAACTGTCA | 1.009 ± 0.0086
39 | AAAACTTTAT | 0.978 ± 0.013
40 | AAAAGAAACC | 1.13 ± 0.048
41 | AAAAGAGATT | 0.995 ± 0.013
42 | AAAAGCAGGA | 1.05 ± 0.052
43 | AAAAGCCCTT | 1.096 ± 0.0043
44 | AAAAGCCGGT | 1.02 ± 0.034
45 | AAAAGCGGGT | 0.997 ± 0.023
46 | AAAAGCTTGC | 1.13 ± 0.11
47 | AAAAGGAGGC | 1.01 ± 0.011
48 | AAAAGGGAGA | 1.01 ± 0.013
49 | AAAAGGGAGG | 1.03 ± 0.019
50 | AAAAGGGGGA | 1.02 ± 0.022

Row | Sequence | switch fluorescence ratio
51 | AAAAGTATTA | 1.01 ± 0.025
52 | AAAAGTGACC | 1.01 ± 0.045
53 | AAAAGTGACT | 0.982 ± 0.049
54 | AAAAGTGCCA | 0.999 ± 0.027
55 | AAAAGTTGTT | 1.04 ± 0.019
56 | AAAAGTTTGA | 0.9656 ± 0.008
57 | AAAATAATTA | 0.981 ± 0.012
58 | AAAATACGCT | 1.16 ± 0.17
59 | AAAATAGCCG | 1.04 ± 0.054
60 | AAAATAGGCC | 1.02 ± 0.013
61 | AAAATAGGCT | 0.993 ± 0.029
62 | AAAATATGTG | 1.02 ± 0.062
63 | AAAATATTTT | 0.981 ± 0.027
64 | AAAATCGCGT | 0.998 ± 0.057
65 | AAAATGAAGA | 0.993 ± 0.026
66 | AAAATGAAGT | 1.03 ± 0.048
67 | AAAATGATAT | 0.99 ± 0.02
68 | AAAATGCGAT | 1.01 ± 0.045
69 | AAAATGGAAG | 0.9997 ± 0.0056
70 | AAAATGGACA | 1.03 ± 0.019
71 | AAAATGGAGG | 1.005 ± 0.0049
72 | AAAATGGGGA | 1.02 ± 0.033
73 | AAAATGGTGG | 1.02 ± 0.013
74 | AAAATGTCGA | 1 ± 0.024
75 | AAAATTCCGG | 1.011 ± 0.0011

Row | Sequence | switch fluorescence ratio
76 | AAAATTGACT | 1.002 ± 0.003
77 | AAAATTGGTT | 1.009 ± 0.007
78 | AAAATTTATT | 0.989 ± 0.018
79 | AAAATTTTAT | 0.989 ± 0.026
80 | AAAATTTTGA | 0.992 ± 0.025
81 | AAACAAAAGT | 1.01 ± 0.037
82 | AAACAAACCC | 1.01 ± 0.042
83 | AAACACGACT | 1.07 ± 0.011
84 | AAACACGAGC | 1.067 ± 0.0061
85 | AAACAGCGTG | 1.01 ± 0.017
86 | AAACAGTATA | 1.03 ± 0.027
87 | AAACAGTTGT | 1.01 ± 0.055
88 | AAACATAAAG | 0.995 ± 0.027
89 | AAACATAGCC | 1.07 ± 0.011
90 | AAACATAGGG | 1.02 ± 0.038
91 | AAACCAAACT | 1.34 ± 0.31
92 | AAACCACCCA | 1.1 ± 0.019
93 | AAACCCAGCT | 0.988 ± 0.02
94 | AAACCCTGGG | 1.04 ± 0.029
95 | AAACCGTT | 1.04 ± 0.024
96 | AAACCTTGCA | 1.92 ± 0.15
97 | AAACGAACAT | 1.217 ± 0.011
98 | AAACGACATT | 1.13 ± 0.13
99 | AAACGAGAAC | 3.04 ± 2.8
100 | AAACGAGGGA | 0.997 ± 0.051

Row | Sequence | switch fluorescence ratio
101 | AAACGATTTC | 1.01 ± 0.019
102 | AAACGCATCT | 1.1304 ± 0.0008
103 | AAACGCCGAA | 0.986 ± 0.062
104 | AAACGCGACT | 1.31 ± 0.2
105 | AAACGGATGC | 0.9573 ± 0.0092
106 | AAACGGCACG | 1.009 ± 0.0032
107 | AAACGGCTCT | 0.967 ± 0.031
108 | AAACGGGAG | 1.032 ± 0.0067
109 | AAACGGGGGC | 1 ± 0.085
110 | AAACTACTAC | 1.147 ± 0.0017
111 | AAACTCGCGC | 1.07 ± 0.012
112 | AAACTCTTGT | 1.01 ± 0.0033
113 | AAACTCTTTT | 0.978 ± 0.039
114 | AAACTGGGCG | 1.04 ± 0.062
115 | AAACTGTTTG | 0.996 ± 0.024
116 | AAACTTGGGT | 1.04 ± 0.024
117 | AAACTTGTGA | 1.02 ± 0.024
118 | AAACTTTCTT | 1.03 ± 0.021
119 | AAACTTTTAA | 1.01 ± 0.019
120 | AAAGAAACAT | 1.07 ± 0.08
121 | AAAGAAACGG | 1.1 ± 0.035
122 | AAAGAAGATG | 0.953 ± 0.045
123 | AAAGAATTGG | 0.975 ± 0.045
124 | AAAGACAGTT | 1.01 ± 0.049
125 | AAAGACGAT | 1.01 ± 0.017

Row | Sequence | switch fluorescence ratio
126 | AAAGACGGCA | 1.53 ± 0.02
127 | AAAGAGACAG | 0.993 ± 0.0046
128 | AAAGAGCAAT | 1.79 ± 1.1
129 | AAAGAGGAAG | 0.987 ± 0.02
130 | AAAGAGGGAT | 0.986 ± 0.053
131 | AAAGAGGGT | 0.986 ± 0.018
132 | AAAGAGTAGA | 1.025 ± 0.0034
133 | AAAGAGTGTG | 0.988 ± 0.037
134 | AAAGATAACT | 1.024 ± 0.0098
135 | AAAGATTAGT | 0.9713 ± 0.0097
136 | AAAGCGAGTC | 1.021 ± 0.01
137 | AAAGCGGACT | 1.044 ± 0.0089
138 | AAAGCGGGGA | 1.04 ± 0.011
139 | AAAGCGTGTT | 1.02 ± 0.05
140 | AAAGCTCGTG | 1 ± 0.015
141 | AAAGCTGCGT | 0.9843 ± 0.0049
142 | AAAGCTTCAT | 1.46 ± 0.088
143 | AAAGCTTTGA | 0.983 ± 0.01
144 | AAAGGAAGG | 0.995 ± 0.013
145 | AAAGGAGAGC | 0.973 ± 0.087
146 | AAAGGAGGGA | 1.01 ± 0.035
147 | AAAGGAGGGT | 0.9994 ± 0.0062
148 | AAAGGATATG | 0.995 ± 0.018
149 | AAAGGATGG | 0.997 ± 0.036
150 | AAAGGATGGT | 0.953 ± 0.022

Row | Sequence | switch fluorescence ratio
151 | AAAGGCCGTG | 1.0223 ± 0.00097
152 | AAAGGGATAG | 1.01 ± 0.038
153 | AAAGGGCGGG | 1.016 ± 0.0049
154 | AAAGGGCTGG | 0.984 ± 0.019
155 | AAAGGGGAAA | 1 ± 0.051
156 | AAAGGGGCTA | 0.988 ± 0.02
157 | AAAGGGGGCT | 0.9912 ± 0.0026
158 | AAAGGGGGGG | 1.01 ± 0.037
159 | AAAGGGGTCA | 1 ± 0.034
160 | AAAGGGGTCT | 1.01 ± 0.031
161 | AAAGGGGTG | 1.06 ± 0.016
162 | AAAGGGGTGG | 0.992 ± 0.043
163 | AAAGGGTAGA | 1.04 ± 0.019
164 | AAAGGGTGCG | 1.03 ± 0.017
165 | AAAGGGTGTT | 1.04 ± 0.013
166 | AAAGGGTTTT | 1.01 ± 0.022
167 | AAAGGTAATA | 1 ± 0.025
168 | AAAGGTACGA | 1.02 ± 0.016
169 | AAAGGTCGAC | 0.973 ± 0.021
170 | AAAGGTGCAA | 1.21 ± 0.2
171 | AAAGGTGGGC | 0.98 ± 0.039
172 | AAAGGTGGTA | 1.02 ± 0.066
173 | AAAGGTGTAT | 1.02 ± 0.014
174 | AAAGGTTGGT | 1.011 ± 0.0037
175 | AAAGGTTTGC | 1 ± 0.039

Row | Sequence | switch fluorescence ratio
176 | AAAGGTTTGG | 0.976 ± 0.035
177 | AAAGGTTTTC | 0.9804 ± 0.0084
178 | AAAGTACGCG | 0.984 ± 0.046
179 | AAAGTACTGG | 1.19 ± 0.042
180 | AAAGTCACAC | 1.04 ± 0.022
181 | AAAGTCATCT | 0.995 ± 0.023
182 | AAAGTCCATA | 1.01 ± 0.026
183 | AAAGTCCTAG | 0.99 ± 0.016
184 | AAAGTCGGGC | 0.946 ± 0.059
185 | AAAGTCTACA | 1.03 ± 0.024
186 | AAAGTGATGT | 0.969 ± 0.02
187 | AAAGTGCATC | 0.992 ± 0.0037
188 | AAAGTGGGAT | 1.03 ± 0.019
189 | AAAGTGGTTA | 1.01 ± 0.025
190 | AAAGTGTGC | 1.07 ± 0.03
191 | AAAGTTCAGT | 0.98958 ± 0.00071
192 | AAAGTTTCCA | 0.993 ± 0.025
193 | AAAGTTTCGT | 1.01 ± 0.018
194 | AAAGTTTTCG | 0.977 ± 0.026
195 | AAATAAAACT | 1.1 ± 0.19
196 | AAATAAACGA | 0.98 ± 0.0072
197 | AAATAAAGGG | 0.987 ± 0.032
198 | AAATAAATAA | 0.944 ± 0.011
199 | AAATAACCGA | 1.08 ± 0.02
200 | AAATAAGATT | 1.02 ± 0.018
